In article PMC4115230, “Lipid–Protein Nanodiscs Offer New Perspectives for Structural and Functional Studies of Water-Soluble Membrane-Active Peptides” (Acta Naturae, 2014):

Tests used:
[1] = target: T1, Membrane scaffold protein (MSP): recombinant 44-243 fragment of human apolipoprotein A1 with an N-terminal … (human, Printed limits 44-243 are in mature numbering: mature apoA-I is precursor 25-267 (243 aa), so residue 243 is the C-terminus and the offset is +24. N-terminal His6 tag omitted. Each nanodisc contains t); assay: NMR titration; VSTx1 sample (20 μM by the legend of Fig. 2, 10 mM Tris-Ac, pH 7.0, no added salt) titrated with a lipid-free MSP solution (0.7 mM); 1D 1H-NMR signal intensity taken as free peptide; 40-45 °C; fits to partition equilibrium (eq. 1) and Langmuir isotherm (eq. 2); MSP concentration and n counted per two MSP molecules (MSP×2); settings: both partners purified
T1 sequence (chain, as listed by the source): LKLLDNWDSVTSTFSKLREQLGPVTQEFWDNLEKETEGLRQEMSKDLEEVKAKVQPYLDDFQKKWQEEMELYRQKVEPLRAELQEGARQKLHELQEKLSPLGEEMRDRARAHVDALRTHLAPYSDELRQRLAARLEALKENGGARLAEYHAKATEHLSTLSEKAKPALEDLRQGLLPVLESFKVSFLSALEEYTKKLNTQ

[2] = target: T1, Membrane scaffold protein (MSP): …; assay: as above; settings: both partners purified; remark: listed apart in the source

B1: VSTx1, voltage sensor toxin from Grammostola spatulata spider venom (recombinant analogue with additional N-terminal Gly-Ser) (peptide)
chain: GSECGKFMWKCKNSNDCCKDLVCSSRWKWCVLASPF
notes: additional N-terminal Gly-Ser residues left by the hydrolysis with thrombin; VSTx1 toxin from Grammostola spatulata spider venom, 34 AA, 4010 Da; three disulfide bonds (cysteine knot); The gene was built from synthetic oligonucleotides; also called VSTx1 toxin; recombinant VSTx1 analogue; not shown: thioredoxin (TRX), N-terminal, cleaved
- stoichiometry N [1]: 1.6
- Ka [2]: 50000 ± 0.02 M⁻¹
- stoichiometry N [2]: 3.2 ± 0.9
